# B1: 6NMW (parent)
# chain: QGDIVVALYPYDGIHPDDLSFKKGEKMKVLEEHGEWWKAKSLLTKKEGFIPSNYVAKLN
# Variants of: B1
# Assay: folding stability dG (cDNA display proteolysis); higher = more stable
# Conditions: PBS, room temperature
row,Variant,folding stability dG [kJ/mol]
1,I50Y,-0.444
2,I50F,8.41
3,I14H,13.1
4,I14M,14.1
5,I14A,13.5
6,I14K,15.9
7,I14T,15.4
8,I14G,12.1
9,I14E,12.5
10,S41L,4.81
11,S41R,0.841
12,S41H,12.4
13,S41T,2.8
14,S41A,5.11
15,S41E,-0.155
16,S41D,1.51
17,S41W,1.2
18,G13R,9.44
19,G13T,7.28
20,G13Y,1.12
21,G13K,10.9
22,G13W,3.08
23,G13V,4.76
24,G13M,8

row,Variant,folding stability dG [kJ/mol]
1,G13S,14.2
2,G13H,3.47
3,D17M,14.5
4,D17Q,16.2
5,D17Y,16.4
6,D17N,16
7,D17C,18.1
8,P10I,8.1
9,P10Y,11.1
10,P10E,13.9
11,P10T,17.5
12,S20K,10.4
13,S20I,8.75
14,S20V,9.76
15,S20M,7.85
16,S20Q,9.49
17,S20H,8.49
18,S20L,4.82
19,S20N,8.41
20,H15R,16.5
21,H15W,14.2
22,H15L,12
23,A7E,0.46
24,A7I,-1.1

row,Variant,folding stability dG [kJ/mol]
1,A7C,5.96
2,A7F,-2.52
3,K45L,18.8
4,K45N,17.7
5,K45T,12.9
6,K45I,7.55
7,W37F,20
8,W37I,16.6
9,D18C,17
10,D18W,13.8
11,D18V,12.9
12,D18E,19.2
13,D18M,15.4
14,D18Y,16.9
15,V6I,17
16,V6E,9.14
17,V6Q,8.4
18,K23M,12.1
19,K23A,14.2
20,K23T,11.5
21,K23N,4.95
22,K23F,10.1
23,K23W,8.62
24,K23Y,10.5

row,Variant,folding stability dG [kJ/mol]
1,K28Y,17.6
2,K28V,20.3
3,K28W,18.5
4,K28C,16.3
5,V29K,5.22
6,V29R,0.335
7,V29S,-2.94
8,L43G,8.43
9,L43N,10
10,L43F,12.7
11,L43Y,13.6
12,L43Q,12
13,L43H,13
14,L43V,14.9
15,L43I,13.7
16,L43W,19.1
17,I4K,3.52
18,I4W,11.4
19,I4G,1.94
20,I4A,3.8
21,I4L,12.6
22,I4M,10.6
23,I4P,-0.226
24,Q1A,16.2

row,Variant,folding stability dG [kJ/mol]
1,Q1Y,16.9
2,Q1E,16.6
3,Q1S,16.3
4,Q1R,15.8
5,Q1W,17
6,Q1F,15.9
7,Q1H,15.9
8,V5F,13.4
9,V5G,-0.305
10,V5E,-2.98
11,V5Y,17.7
12,V5R,1.49
13,V5I,9.92
14,V5W,17.2
15,F49Q,9.41
16,F49C,16
17,F49E,3.95
18,D3C,19.8
19,D3P,12.9
20,D3M,19.2
21,D3R,16.8
22,D3Y,20.3
23,D3F,20.5
24,D3G,14.5

row,Variant,folding stability dG [kJ/mol]
1,D3I,18.8
2,A56N,9.37
3,A56M,18.2
4,A56V,19.1
5,A56F,14.4
6,A56K,16.9
7,A56P,0.347
8,K57W,16.2
9,K57P,15.2
10,K57L,15.1
11,K57D,7.78
12,K57V,14.2
13,K57I,13.5
14,E31R,10.7
15,E31I,12.5
16,E31L,11.2
17,S52R,17.9
18,S52A,17
19,S52Q,13.8
20,S52F,11.9
21,S52N,10.8
22,S52P,15.3
23,S52L,8.36
24,S52E,6.86

row,Variant,folding stability dG [kJ/mol]
1,S52T,9.33
2,W36K,14.6
3,W36Q,10.5
4,W36P,4.76
5,W36N,8.92
6,W36F,13.8
7,W36S,9
8,W36L,11.9
9,W36C,12.8
10,H33C,18.5
11,H33N,15.1
12,H33Q,12.8
13,T44M,1.85
14,T44I,-1.39
15,T44L,1.74
16,T44R,3.86
17,T44G,3.51
18,T44S,12.9
19,T44H,4.1
20,T44V,0.238
21,A39C,17
22,A39M,6.87
23,A39L,8.22
24,Y11M,2.8

row,Variant,folding stability dG [kJ/mol]
1,Y11R,9.43
2,Y11Q,-1.49
3,Y11V,0.615
4,Y11L,3.56
5,L30D,2.22
6,L30T,8.55
7,L30I,13.7
8,L30M,11.9
9,L30W,6.27
10,G2C,19
11,G2L,13.4
12,G2D,14.5
13,G2S,14.8
14,G2N,14.6
15,L8M,11.6
16,L8C,14.5
17,L8T,5.17
18,L8K,9.61
19,L8Y,4.25
20,L8V,9.57
21,L8N,5.15
22,L8F,5.18
23,L8H,4.44
24,G34R,6.91

row,Variant,folding stability dG [kJ/mol]
1,G34H,6.97
2,G34Q,7.26
3,G34C,11.5
4,G34W,5.18
5,G34N,9.28
6,G24H,9
7,G24A,5.22
8,G24K,1.99
9,G24Y,9.41
10,G24W,10.5
11,K46H,11
12,K46V,9.23
13,K46F,10.4
14,K46W,7.24
15,K46T,8.14
16,K46Y,8.46
17,K46D,10.3
18,K46L,14.9
19,E25H,4.01
20,E25T,2.57
21,E25I,-2.59
22,L58S,10.7
23,L58A,11
24,L58P,9.94

row,Variant,folding stability dG [kJ/mol]
1,L58T,12
2,V55A,6.16
3,V55F,17.2
4,V55G,0.469
5,V55E,-2.17
6,V55H,-1.74
7,V55T,7.03
8,G48S,-2.28
9,G48Y,2.45
10,G48K,0.339
11,G48C,1.07
12,K26A,11.6
13,K26C,18.2
14,K26D,1.07
15,K26H,18
16,K26T,13
17,K26F,19.9
18,K26V,17.5
19,K22C,13.7
20,K22E,12.8
21,K22N,11.2
22,K22P,3.13
23,K22A,13.3
24,N53G,14.5

row,Variant,folding stability dG [kJ/mol]
1,N53S,18.8
2,N53P,7.01
3,N53K,16.5
4,N53I,12.5
5,N53L,12.6
6,N53W,19.6
7,N53R,17.1
8,E35V,16.5
9,E35N,16.8
10,E35S,16
11,E35R,15
12,E32H,14.8
13,E32T,16.5
14,K40M,17.2
15,K40L,16
16,K40A,12.6
17,K40R,18.1
18,K40F,15.2
19,K40C,15.5
20,P51T,-1.79
21,P51F,5.25
22,P51K,6.78
23,P51R,7.09
24,P51V,-0.941

row,Variant,folding stability dG [kJ/mol]
1,P51D,4.54
2,M27F,15.6
3,M27C,2.26
4,M27V,0.523
5,M27I,7.29
6,M27Q,-3.67
7,Y54M,13.3
8,Y54A,10.8
9,Y54F,14.7
10,Y54N,4.35
11,Y54V,5.38
12,Y54E,0.0126
13,Y54P,-3.59
14,Y54W,9.14
15,Y54Q,6.03
16,Y54C,11.9
17,Y54R,11.5
18,E47K,10.7
19,E47L,10.8
20,E47I,18.3
21,E47G,5.28
22,E47H,9.3
23,E47N,7.56
24,F21C,3.17

row,Variant,folding stability dG [kJ/mol]
1,F21M,5.09
2,D12C,17.9
3,D12K,18.1
4,D12Y,16.2
5,D12F,16.5
6,D12V,18.4
7,Y9T,7.83
8,Y9Q,13.2
9,Y9M,14.3
10,Y9W,15.3
11,Y9L,12.8
12,Y9H,11.8
13,Y9A,11.5
14,Y9I,11.4
15,Y9E,9.92
16,Y9N,6.73
17,L42K,1.94
18,L42T,6.13
19,L42M,12.9
20,L42C,17.4
21,L42F,11.8
22,L42H,4.28
23,L42Q,5.51
24,P16V,13

row,Variant,folding stability dG [kJ/mol]
1,P16D,13.5
2,P16H,12.2
3,P16Q,12.9
4,P16M,11.7
5,N59T,15
6,N59I,16.8
7,N59P,16.3
8,N59F,14.6
9,N59M,15.2
10,N59E,16.2
11,K38P,1.41
12,K38F,20.6
13,K38H,12.2
14,K38G,0.138
15,K38N,6.05
16,K38R,17
17,L19T,0.703
18,L19I,6.1
19,L19F,4.25
20,L19C,3.05
21,L19A,-0.23
22,L19V,1.82

# — the MegaScale stability set (Tsuboyama et al. 2023)
